Source: patent US20230322924A1 (Janssen / Centocor, published 2023)

Experiments:
[1] = molecular target: T1, TMEW1 (TMEFF2-FL-ECD-His-Avitag) (human, UniProt Q9UIK5 41-320); assay: Biacore 8K SPR, mAb captured on anti-human Fc, single cycle kinetics
T1 construct: Human TMEFF2 ECD with C-terminal G3S, 6xHis tag and Avi-tag, all in the entry; also called TMEFF2 ECD
T1 sequence: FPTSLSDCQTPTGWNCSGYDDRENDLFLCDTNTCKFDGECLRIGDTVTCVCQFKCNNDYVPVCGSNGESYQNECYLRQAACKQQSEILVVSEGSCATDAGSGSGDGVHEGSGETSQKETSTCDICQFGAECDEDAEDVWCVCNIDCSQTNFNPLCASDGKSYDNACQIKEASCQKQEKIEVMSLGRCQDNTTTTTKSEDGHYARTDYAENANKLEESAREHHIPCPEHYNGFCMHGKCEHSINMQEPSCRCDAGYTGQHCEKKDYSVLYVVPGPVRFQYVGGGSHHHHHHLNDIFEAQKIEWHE
Procedure: The binding of anti-TMEFF2 mAbs to human TMEFF2 ECD was measured by Biacore 8K SPR. The format of the assay was to capture the mAbs using a high density anti-human Fc surface, then inject human TMEFF2 concentration titration using a single cycle kinetics method. […] The mAbs were captured on the anti-human Fc IgG surface at 0.5 μg/ml (˜200-300 RU) on flow cell 2. The running buffer was then changed to HBSP+100 ug/ml BSA. TMEFF2 ECD at 30 nM concentration in 3-fold dilution series was injected from low to high concentration using single cycle kinetics method. The off-rate was monitored 30 minutes after the last or highest concentration injection and then the surface was regenerated using 0.8% phosphoric acid (Bio-Rad). A buffer blank run, capturing the same mAbs and using the same conditions of sample run was also completed. The raw data were processed by subtracting two sets of reference data from the response data: 1) reference flow cell 1 subtracted from sample flow cell 2 and 2) buffer blank run from experimental run. The processed data at all concentrations for each mAb were globally fit to a 1:1 simple Langmuir binding model to extract estimates of the kinetic (kon, koff) and affinity (KD) constants.

Rh-CD19 = molecular target: T2, Rh-CD19 (UniProt P15391 20-291, limits assumed); assay: Biacore 8K SPR, antibody over immobilised protein
T2 construct: rh read as recombinant human
T2 sequence (looked up): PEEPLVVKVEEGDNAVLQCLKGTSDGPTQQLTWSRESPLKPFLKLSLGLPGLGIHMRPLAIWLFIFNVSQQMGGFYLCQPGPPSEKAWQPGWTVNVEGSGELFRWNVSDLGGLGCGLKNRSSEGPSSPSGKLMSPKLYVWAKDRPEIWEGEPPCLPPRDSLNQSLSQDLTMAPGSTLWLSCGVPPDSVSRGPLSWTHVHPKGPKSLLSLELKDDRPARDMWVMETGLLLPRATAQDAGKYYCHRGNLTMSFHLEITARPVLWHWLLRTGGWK
Procedure: (§1) Non-specific binding of the lead molecule to unrelated surfaces is determined by biosensor technology (Biacore 8K). Antibody is passed over SPR surfaces coated with unrelated proteins. […] Irrelevant surfaces include negatively charged protein (Soy Trypsin Inhibitor), positively charged protein (Lysozyme and β-defensin), hydrophobic (Rh-integrin a4b7), human IgG, sticky protein (Rh-CD19). Proper controls are used in this experiment. Lead is flown over two surfaces, one is a blank and the other has a molecule directly immobilized. The response unit (RU) level is determined by subtracting the blank RU from the test surface RU. […] A response unit ≥100 predicts high risks for non-specific binding to charged/hydrophobic/IgG surfaces which would create challenges during manufacturing and translate to poor PK properties.

Rh-integrin a4b7 = molecular target: T3, Rh-integrin a4b7 (UniProt P13612 34-977; P26010 20-723, limits assumed); assay: Biacore 8K SPR, antibody over immobilised protein
T3 construct: rh read as recombinant human
Procedure: as §1

[2] = molecular target: human IL1RAP on NCI-H1975 cells (human); assay: cell-based or functional assay
[3] = molecular target: T4, human PSMA on cells (LNCaP) (human, UniProt Q04609 1-750); assay: flow cytometry, mammalian Fab supernatant on LNCaP cells, anti-human kappa-RPE
T4 construct: whole, on cells; also called LNCaP cells
Procedure: Individual Fab clones were isolated from the round 3 output of all panning experiments following pIX excision. Fab clones were tested for binding to chimp and cyno PSMA expressing HEK cells, as well as to human PSMA on LNCaP cells. Briefly, PSMA expressing cells were aliquoted into a V-bottom plate (CoStar 3357) at a density of 200,000 per well and incubated with (100 μl) supernatants expressing Fab fragments for 1 hour on ice. Cells were washed twice with PBS containing 2% FBS, and stained with a mouse anti-human kappa-RPE antibody (Life Technologies cat #MH10514) for 1 hour on ice. Cells were washed twice with PBS containing 2% FBS and resuspended in […] of the same wash buffer. Plates were read on a BD FACS Array flow cytometer. FACS data was analyzed in FlowJo software by live gating the healthy population of cells using forward scatter and side scatter, and then analyzing the cells within this gate for PE staining. Mean fluorescence intensity (MFI) was calculated and exported into Microsoft Excel. […] Fabs were sequenced and moved forward for cloning into mammalian expression vector for rescreening. True positives were selected from the binding of mammalian cell expressed Fab supernatants to PSMA-expressing cell lines.
FIGS. 22A, 22B, 22C and 22D show the titration curves for anti-PSMA panning hits vs. LNCaP cells. […] Binding profiles among hits were compared across cell lines expressing different species of PSMA.

Human CD33 full length = Human CD33 full length (human, UniProt P20138 18-364); assay: cell-based or functional assay
Human CD33 ECD-HSA = molecular target: T5, Human CD33 ECD-HSA (human); assay: SPRi off-rate screen (IBIS MX96)
T5 construct: CD33 ECD fused at the C-terminus to monomeric HSA (C58S) and a six-histidine tag; also called C33W2; huCD33 ECD-HSA

Chain of Human CD33 full length (P20138 18-364 limits assumed): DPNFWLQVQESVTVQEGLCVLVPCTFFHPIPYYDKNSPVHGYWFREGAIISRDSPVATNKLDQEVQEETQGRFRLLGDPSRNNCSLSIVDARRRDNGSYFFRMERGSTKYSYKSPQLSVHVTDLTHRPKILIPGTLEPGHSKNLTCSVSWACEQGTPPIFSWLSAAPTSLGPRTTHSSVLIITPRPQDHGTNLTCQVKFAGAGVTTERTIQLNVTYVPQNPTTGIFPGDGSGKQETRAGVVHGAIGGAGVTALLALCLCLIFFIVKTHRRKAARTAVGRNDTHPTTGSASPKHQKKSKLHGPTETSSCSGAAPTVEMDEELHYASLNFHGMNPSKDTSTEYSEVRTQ
T4 sequence (Q04609 whole entry): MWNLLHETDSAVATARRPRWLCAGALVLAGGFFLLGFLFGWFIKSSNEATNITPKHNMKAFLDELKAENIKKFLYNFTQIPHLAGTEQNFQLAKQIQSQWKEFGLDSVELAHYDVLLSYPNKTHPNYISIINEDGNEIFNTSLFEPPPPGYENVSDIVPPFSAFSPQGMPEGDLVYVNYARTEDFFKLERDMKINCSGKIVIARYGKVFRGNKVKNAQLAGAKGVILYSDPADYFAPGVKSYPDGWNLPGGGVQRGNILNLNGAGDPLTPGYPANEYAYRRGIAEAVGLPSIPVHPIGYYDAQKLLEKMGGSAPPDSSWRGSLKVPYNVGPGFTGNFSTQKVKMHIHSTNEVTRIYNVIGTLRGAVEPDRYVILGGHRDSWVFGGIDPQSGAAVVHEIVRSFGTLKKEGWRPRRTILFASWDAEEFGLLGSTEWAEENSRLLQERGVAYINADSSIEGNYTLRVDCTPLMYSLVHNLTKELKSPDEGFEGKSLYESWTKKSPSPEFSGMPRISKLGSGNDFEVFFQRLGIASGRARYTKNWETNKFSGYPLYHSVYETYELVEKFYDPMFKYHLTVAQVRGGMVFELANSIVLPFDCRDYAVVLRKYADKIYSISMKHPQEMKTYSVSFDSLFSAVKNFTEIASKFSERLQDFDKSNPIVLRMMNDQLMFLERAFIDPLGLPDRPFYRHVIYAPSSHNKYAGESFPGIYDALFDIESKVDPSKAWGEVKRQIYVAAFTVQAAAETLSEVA

B1: TMEB757 (antibody, human IgG4 S228P, kappa, F234A L235A, V domains shown)
VH: EVQLLESGGGLVQPGGSLRLSCAASGFTFSSYSMSWVRQAPGKGLEWVSVISGSGGFTDYADSVKGRFTISRDNSKNTLYLHMNSLRAEDTAVYYCARMPLNSPHDYWGQGTLVTVSS
VL: AIQMTQSPSSLSASVGDRVTITCRASQGIRNDLGWYQQKPGKAPKLLIYAASSLQSGVPSRFSGSGSGTDFTLTISSLQPEDFATYYCLQDYNYPLTFGGGTKVEIKR
notes: IgG4 PAA anti-TMEFF2; re-engineered variant of TMEB675; also called TMEH460/B76L85; TMEFB757
- Kd [1]: 0.31 nM
- koff [1]: 0.000167 s⁻¹
- kon [1]: 542000 M⁻¹ s⁻¹

B2: TMEB762 (antibody, human IgG4 S228P, kappa, F234A L235A, V domains shown)
VH: EVQLLESGGGLVQPGGSLRLSCAASGFTFSSYSMSWVRQAPGKGLEWVSVISGSGGFTDYADSVKGRFTISRDNSKNTLYLQMNSLRAEDTAVYYCARMPLNSPHDYWGQGTLVTVSS
VL: DIQMTQSPSSLSASVGDRVTITCRASQGIRNDLGWYQQKPGKAPKLLIYAASSLQSGVPSRFSGSGSGTDFTLTISSLQPEDFATYYCLQDYNYPLTFGGGTKVEIKR
notes: IgG4 PAA; also called TMEH459/DL3L129
- binding result (Rh-CD19): no binding (tested: response unit ≥100 predicts high risks)
- binding result (Rh-integrin a4b7): no binding (tested: response unit ≥100 predicts high risks)

B3: IC3B19 (bispecific antibody, human IgG4 S228P, kappa, F234A L235A)
heavy: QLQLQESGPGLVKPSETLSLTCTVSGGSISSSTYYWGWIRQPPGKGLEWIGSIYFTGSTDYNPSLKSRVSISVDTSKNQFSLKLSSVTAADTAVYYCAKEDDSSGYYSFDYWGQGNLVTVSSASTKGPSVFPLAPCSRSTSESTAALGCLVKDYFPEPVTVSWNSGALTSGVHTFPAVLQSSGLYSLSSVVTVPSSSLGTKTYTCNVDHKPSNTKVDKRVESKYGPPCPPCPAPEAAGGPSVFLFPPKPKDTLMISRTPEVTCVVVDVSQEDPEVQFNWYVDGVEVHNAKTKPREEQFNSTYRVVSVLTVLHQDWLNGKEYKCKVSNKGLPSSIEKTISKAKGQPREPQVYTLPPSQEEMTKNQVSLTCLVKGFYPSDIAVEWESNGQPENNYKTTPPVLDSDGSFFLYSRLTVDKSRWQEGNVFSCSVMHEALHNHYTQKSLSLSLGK
light: DIQLTQSPSFLSASVGDRVTITCRASQGISSYLAWYQQKPGKAPKLLIYAASTLQSGVPSRFSGSGSGTEFTLTISSLQPEDFATYYCQQVNSYPLTFGGGTKVEIKRTVAAPSVFIFPPSDEQLKSGTASVVCLLNNFYPREAKVQWKVDNALQSGNSQESVTEQDSKDSTYSLSSTLTLSKADYEKHKVYACEVTHQGLSSPVTKSFNRGEC
VH: EVQLVESGGGLVQPGGSLRLSCAASGFTFNTYAMNWVRQAPGKGLEWVARIRSKYNNYATYYAASVKGRFTISRDDSKNSLYLQMNSLKTEDTAVYYCARHGNFGNSYVSWFAYWGQGTLVTVSS
VL: QTVVTQEPSLTVSPGGTVTLTCRSSTGAVTTSNYANWVQQKPGQAPRGLIGGTNKRAPGTPARFSGSLLGGKAALTLSGVQPEDEAEYYCALWYSNLWVFGGGTKLTVL
- cytotoxicity EC50, caspase 3/7 assay, NCI-H1975 cells with pan T cells [2]: 0.018 nM

B4: PSMM81 (Fab, V domains shown)
VH: QVQLVQSGAEVKKPGSSVKVSCKASGGTFDDYAISWVRQAPGQGLEWMGRIDPIEGTANYAQKFQGRVTITADESTSTAYMELSSLRSEDTAVYYCARDRYYYDGVYWYSDYFDYWGQGTLVTVS
VL: not shown
notes: Mammalian Fab supernatant; also called PSMB80
- EC50 (read off the curve) [3]: ~0.08 µg/mL

B5: TMCB150 (bispecific antibody, human IgG4 S228P, kappa, lambda, F234A L235A)
heavy 1: not shown
light 1: not shown
heavy 2: QVQLQQSGPRLVRPSQTLSLTCAISGDSVFNNNAAWSWIRQSPSRGLEWLGRTYYRSKWLYDYAVSVKSRITVNPDTSRNQFTLQLNSVTPEDTALYYCARGYSSSFDYWGQGTLVTVSSASTKGPSVFPLAPCSRSTSESTAALGCLVKDYFPEPVTVSWNSGALTSGVHTFPAVLQSSGLYSLSSVVTVPSSSLGTKTYTCNVDHKPSNTKVDKRVESKYGPPCPPCPAPEAAGGPSVFLFPPKPKDTLMISRTPEVTCVVVDVSQEDPEVQFNWYVDGVEVHNAKTKPREEQFNSTYRVVSVLTVLHQDWLNGKEYKCKVSNKGLPSSIEKTISKAKGQPREPQVYTLPPSQEEMTKNQVSLTCLVKGFYPSDIAVEWESNGQPENNYKTTPPVLDSDGSFLLYSKLTVDKSRWQEGNVFSCSVMHEALHNHYTQKSLSLSLGK
light 2: QSALTQPASVSGSPGQSITISCTGTSSNIGTYKFVSWYQQHPDKAPKVLLYEVSKRPSGVSSRFSGSKSGNTASLTISGLQAEDQADYHCVSYAGSGTLLFGGGTKLTVLGQPKAAPSVTLFPPSSEELQANKATLVCLISDFYPGAVTVAWKADSSPVKAGVETTTPSKQSNNKYAASSYLSLTPEQWKSHRSYSCQVTHEGSTVEKTVAPTECS
notes: IgG4 PAA; also called TMEB762×CD3B376
- binding result (Rh-CD19): no binding (tested: response unit ≥100 predicts high risks)
- binding result (Rh-integrin a4b7): no binding (tested: response unit ≥100 predicts high risks)

B6: C3CB103 (bispecific antibody, IgG4, V domains shown)
VH 1: QVQLVESGGGVVQPGRSLRLSCVASGFTFSSYGMHWVRQAPGKGLEWVAVISYDGSNKYYADSVKGRFTISRDNSKNTLYLQMNSLRAEGTAVYYCAKDFRSFDWLPPDSASYHGMDVWGQGTTVTVSS
VL 1: SYELTQPPSVSVSPGQTASITCSGDKLGDKYACWYQQKPGQSPVLVIYQDGKRPSGIPERFSGSNFGNKATLTISGTQAMDEADYYCQAWDRNTVVFGGGTKLTVL
VH 2: QVQLQQSGPRLVRPSQTLSLTCAISGDSVFNNNAAWSWIRQSPSRGLEWLGRTYYRSKWLYDYAVSVKSRITVNPDTSRNQFTLQLNSVTPEDTALYYCARGYSSSFDYWGQGTLVTVSS
VL 2: QSALTQPASVSGSPGQSITISCTGTSSNIGTYKFVSWYQQHPDKAPKVLLYEVSKRPSGVSSRFSGSKSGNTASLTISGLQAEDQADYHCVSYAGSGTLLFGGGTKLTVL
- Primary AML Cell Killing EC50 (Human CD33 full length): 4.19 nM

B7: C3CB97 (bispecific antibody, IgG4, V domains shown)
VH 1: QVQLVQSGSELRKPGASVKVSCKASGYTFTNYAMNWVRQAPGQGLEWMGWINTNTGNPTYAQGFTGRFVFSLDTSVSSAYLQISSLKAEDTAMYYCATDRDRGTDYWGQGTLVTVSS
VL 1: QSALTQPASVSGSPGQSITISCTGTSSDVGDYNYVSWYQQHPGKVPKLMIYDVSNRPSGVSNRFSGSMSGNTASLTISGLQAEDEADYYCSSYSSSSALEVFGGGTKLTVL
VH 2: QVQLQQSGPRLVRPSQTLSLTCAISGDSVFNNNAAWSWIRQSPSRGLEWLGRTYYRSKWLYDYAVSVKSRITVNPDTSRNQFTLQLNSVTPEDTALYYCARGYSSSFDYWGQGTLVTVSS
VL 2: QSALTQPASVSGSPGQSITISCTGTSSNIGTYKFVSWYQQHPDKAPKVLLYEVSKRPSGVSSRFSGSKSGNTASLTISGLQAEDQADYHCVSYAGSGTLLFGGGTKLTVL
- Primary AML Cell Killing EC50 (Human CD33 full length): ~0.232 nM

B8: C3CB102 (bispecific antibody, IgG4, V domains shown)
VH 1: not shown
VL 1: SYELTQPPSVSVSPGQTASITCSGNKLGAKFASWYQQKPGQSPVLVIYQDNKRPSGIPERFSGSNSGNTATLTISGTQAVDEADYYCQAWDSSTVVFGGGTKLTVL
VH 2: QVQLQQSGPRLVRPSQTLSLTCAISGDSVFNNNAAWSWIRQSPSRGLEWLGRTYYRSKWLYDYAVSVKSRITVNPDTSRNQFTLQLNSVTPEDTALYYCARGYSSSFDYWGQGTLVTVSS
VL 2: QSALTQPASVSGSPGQSITISCTGTSSNIGTYKFVSWYQQHPDKAPKVLLYEVSKRPSGVSSRFSGSKSGNTASLTISGLQAEDQADYHCVSYAGSGTLLFGGGTKLTVL
- Primary AML Cell Killing EC50 (Human CD33 full length): 4.97 nM

B9: C33B782 (antibody, IgG4, V domains shown)
VH: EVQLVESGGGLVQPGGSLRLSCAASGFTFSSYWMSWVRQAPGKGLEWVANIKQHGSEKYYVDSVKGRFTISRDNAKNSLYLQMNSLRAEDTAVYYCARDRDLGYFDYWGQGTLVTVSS
VL: SYELTQPPSVSVSPGQTASITCSGNKLGAKFASWYQQKPGQSPVLVIYQDNKRPSGIPERFSGSNSGNTATLTISGTQAVDEADYYCQAWDSSTVVFGGGTKLTVL
notes: also called C33H72/C33L40; C33F82
- koff (Human CD33 ECD-HSA): 0.000258 s⁻¹

B10: C33B792 (antibody, IgG4, V domains shown)
VH: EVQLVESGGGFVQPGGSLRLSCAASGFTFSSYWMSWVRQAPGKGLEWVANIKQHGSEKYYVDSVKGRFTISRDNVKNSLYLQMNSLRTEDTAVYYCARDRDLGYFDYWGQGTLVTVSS
VL: SYELTQPPSVSVSPGQTASITCSGDKLGNKYASWYQQKPGQSPVLVIYQDTKRPSGIPERVSGSNSGNTATLTISGTQAMDEADYHCQAWDSSTVVFGGGTKLTVL
notes: also called C33H87/C33L35; C33F92
- koff (Human CD33 ECD-HSA): 0.000427 s⁻¹
